For one assay, the target named is T1, human PD-L2 (human, UniProt Q9BQ51 20-220, limits assumed).
T1 construct: Coated on plates in the direct ELISA; construct not described; also called programmed death ligand-2
T1 sequence (looked up): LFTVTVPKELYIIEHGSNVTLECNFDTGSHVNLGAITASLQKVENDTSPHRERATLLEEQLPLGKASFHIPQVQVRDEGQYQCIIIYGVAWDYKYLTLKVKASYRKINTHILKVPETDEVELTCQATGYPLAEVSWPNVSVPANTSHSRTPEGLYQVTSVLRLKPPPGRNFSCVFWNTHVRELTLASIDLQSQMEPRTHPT
Description: direct ELISA, human PD-L2 coated. As to the method:
The procedures of the direct ELISA are described in the method below. […] The negative control was conducted using the same procedures as the anti-human PD-L1 antibodies, except that a blank buffer is used instead of the anti-human PD-L1 antibodies. The blank buffer is the buffer for diluting the anti-human PD-L1 antibodies. […] Thereby, 2C5, 3B8, 8C6, 10H6, 11G7, and 12H2 can eliminate the cross-reactivity of human PD-L2.
(§1) 3. Direct ELISA with rabbit monoclonal antibodies against human PD-L1 or PD-L2. Human PD-L1 and PD-L2 were coated on high binding ELISA plates at 4° C. overnight in 1×PBS, pH7.4. Coated plates were washed with Wash Buffer (1×PBS supplemented with 0.5% (V/V) Tween-20), and blocked with Blocking Buffer (1×PBS supplemented with 5% (W/V) skim milk). After blocking, plates were incubated with rabbit anti-PD-L1 monoclonal antibodies for 1 hour at room temperature, followed by washing and incubation with goat anti-rabbit IgG antibody conjugated with HRP. After a final wash, plated were developed using colorimetric reaction catalyzed by HRP to see if a monoclonal antibody can or cannot bind to PD-L1 and PD-L2.

In assay [1] the target is T2, human PD-L1 (human, UniProt Q9NZQ7 19-238, limits assumed).
T2 construct: also called programmed death ligand-1; CD274
T2 sequence (Q9NZQ7 19-238 limits assumed): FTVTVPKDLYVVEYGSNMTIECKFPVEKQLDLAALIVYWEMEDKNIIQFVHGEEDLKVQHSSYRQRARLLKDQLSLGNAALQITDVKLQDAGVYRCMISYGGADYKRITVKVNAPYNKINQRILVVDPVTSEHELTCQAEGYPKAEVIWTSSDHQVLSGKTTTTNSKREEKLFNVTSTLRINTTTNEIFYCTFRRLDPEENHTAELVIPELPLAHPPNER
Description: direct ELISA, 10 ng/ml human PD-L1. As for the experimental part: as §1
In general terms: In an ELISA, binding on a coated surface is turned into a signal by an enzyme label.

For assay [2], the target named is T2, human PD-L1. In words: sandwich ELISA (8C6 capture, 2C5 detection) compared with direct ELISA. As to the method: As compared to the direct ELISA with 8C6 shown in FIG. […] The sandwich ELISA enhances the sensitivity of human PD-L1 to 2C5, as compared to the direct ELISA.
as §1
5. Sandwich ELISA with rabbit monoclonal antibodies against human PD-L1. Capture antibodies were coated on high binding ELISA plates at 4° C. overnight in bicarbonate buffer. Coated plates were washed with Wash Buffer (1×PBS supplemented with 0.5% (V/V) Tween-20), and blocked with Blocking Buffer (1×PBS supplemented with 5% (W/V) skim milk). […]

This note sets out measurements from patent publication US20200386770A1 (YUROGEN BIOSYSTEMS, published 2020).

B1: rabbit anti-human PD-L1 mAb 10H6 (antibody, V domains shown)
VH: QEQLVESGGGLVQPEGSLTLTCTASGFSFSSIYYLCWVRQAPGKGLEWIACIYGGNSDNTWYASWAKGRFTISKTSSTTVTLQMTSLTAADTATYFCARGYDIYGYAINLWGPGTLVTVSS
VL: DVVMTQTPASVEAAVGGTVTIKCQASQSIGGYLAWYQQKPGQPPKLLIYRASTLESGVASRFKGSGSGTEFTLTISDLECADAATYYCQCTYDSSNSRIYPNVFGGGTEVVVKG
notes: Recombinant rabbit IgG; Full heavy chain assembled from the Fab heavy chain entry followed by the Fc entry
Turning to B1, the binding result with human PD-L2 is on record as “no binding (tested: concentrations up to 1000 ng/ml)”.

B2: rabbit anti-human PD-L1 mAb 3B8 (antibody, V domains shown)
VH: QSLEESGGDLVKPGASRTLTCTASGFSFSNNAYMCWVRQAPGKGLELIACIYSRYGNTHYASWAKGRFTISKTSSTTVTLQMTSLTAADTATYFCARGASGSSDYSFYFNLWGPGTLVTVSS
VL: AYDMTQTPASVEVAVGGTVTIKCQASQSISSWLAWYQQKPGQPPKLLIYDAYDLASGVPSRFKGSGSGTQFTLTISGVECTDAATYYCQQGYSSENIDNSFGGGTDVVVKG
notes: Recombinant rabbit IgG; Full heavy chain assembled from the Fab heavy chain entry followed by the Fc entry; Biotinylated when used as detection antibody in the sandwich ELISA
In the case of B2, the binding result in the assay with human PD-L2 is listed as “no binding (tested: concentrations up to 1000 ng/ml)”.

B3: rabbit anti-human PD-L1 mAb 12H2 (antibody, V domains shown)
VH: QEQLVESGGGLVQPEGSLTLTCTASGFSFSSSYYMCWVRQAPGKGLEWIACIWTSNGGRTYYANWAKGRFTISETSSTTVTLQMTSLTAADTATYFCARDDDTGSGYYNLWGPGTLVTVSS
VL: QIVMTQTASPVSAAVGGTVTINCQASESISSWLAWYQQKPGQPPKLLIYKASTLASGVPSRFKGSGSGTEFTLTISDLECADAATYYCQHGYYFGSVANTFGGGTEVVVKG
notes: as for B1
Regarding B3, the binding result in the assay with human PD-L2 was “no binding (tested: concentrations up to 1000 ng/ml)”.

B4: rabbit anti-human PD-L1 mAb 11G7 (antibody, V domains shown)
VH: QSVEESGGRLVTPGTPLTLTCTVSGIDLSSYDMTWVRQAPGKGLEYIGYISYFDKTYYATWAKGRFTISKTSTTVDLKMTSLTTEDTATYFCVRDRPDGITANLWGQGTLVTVSS
VL: AQLPTQTASPVSAAVGGTVTINCQSSHNVYSDNRLSWYQQKPGQPPKLLIYWASILASGVPSRFKGSGSGTQFTLTITDLECDDAATYYCAGGYSGNIYTFGGGTEVVVKG
notes: as for B1
B4: the “OD450 at 10 ng/ml” value in the assay with human PD-L1 [1] was about 0.1 OD450. In addition, the binding result with human PD-L2 is on record as “no binding (tested: concentrations up to 1000 ng/ml)”.

B5: rabbit anti-human PD-L1 mAb 2C5 (antibody, V domains shown)
VH: QSVEESGGRLVTPGTPLTLTCTVSGFSLNNDNVGWVRQAPGKGLEWVGLIDILGSSYYASWAKGRFTISKTSNTVDLKITSPTIEDTATYFCAREGDGSFDPWGPGTLVTVSS
VL: AQVLTQTPSPVSAAVGGTVTINCQASQNVYNKKNLAWYQQKLGQPPKLLIYKASTLASGVPSRFSGSGSGTQFTLTISDLECDDAATYYCQGDYIGSRAFGGGTEVVVKG
notes: as for B2
As to B5, the binding result with human PD-L2 is “no binding (tested: concentrations up to 1000 ng/ml)”. Besides, the “fold sensitivity, sandwich ELISA against direct ELISA” value in the assay with human PD-L1 [2] is at least 2 fold.

B6: rabbit anti-human PD-L1 mAb 8C6 (antibody, V domains shown)
VH: QSVEESGGRLVTPGTPLTLTCTASGFDISRHHMCWVRQAPGEGLEYIGFINPPGSAYYANWAKGRFTISRTSTTVALEMTSLTTEDTATYFCARWRFDDYGDLWGQGTLVTVSS
VL: AYDMTQTPASVEVAVGGTVTIKCQASESIASYLAWYQQKPGQPPKLLIYKASTLASGVSSRFRGSGSGTEFTLTISGVECADAATYYCQQGYSATNIDNAFGGGTEVVVKG
notes: as for B2
On to B6, for which, in the assay with human PD-L2, the binding result is given as “no binding (tested: concentrations up to 1000 ng/ml)”.
